Results from the DeepSol protein solubility set.

Assay: soluble on expression in E. coli; label from the status in PepcDB or PDB records

Q: For “MNVLICQQPKELVWKQREIPIPGDNEALIKIKSVGICGTDIHAWGGNQPFFSYPRVLGHEICGEIVGLGKNIADLKNGQQVAVIPYVACQQCPACKSGRTNCEKISVIGVHQDGGFSEYLSVPVANILPADGIDPQAAALIEPFAISAHAVRRAAIAPGEQVLVVGAGPIGLGAAAIAKADGAQVVVADTSPARREHVATRLELPLLDPSAEDFDAQLRAQFGGSLAQKVIDATGNQHAMNNTVNLIRHGGTVVFVGLFKGELQFSDPEFHKKETTMMGSRNATPEDFAKVGRLMAEGKITADMMLTHRYPFATLAETYERDVINNRELIKGVITF”, which “soluble on expression in E. coli” value is on record?
A: not soluble

Q: Which “soluble on expression in E. coli” value does the source give for “MPWLLPREIAPLHQKALDRYLGSLTERLSDPNVDRNALVREELARLLYGRPYEELLEANPLAAMGLDPEGITFEAEYYAATDLEKFRRVKPLLWFWKVLDLTPLGQSVHSGVAIRRALAPFIFKRVGKNPKFFQNVEFSVGYNLELGDDVVVHRYVFLDDIGGIKIGDRTSLSDYVNVYSHTHHVLASPDVTLKETIIGSGVRITYHATVLAGVRIGDDAMVGTGAVVTKDIPPHAIALGIPARPVRYKVRHDCPYCRKGEPHPSDLVPKLPDRKGNPDYPDFLPPGFGTREAGS” here?
A: soluble

Q: For “MGSDKIHHHHHHQKEGSLKIGKEGAESGFINLRVEIPPGAFGKQKVLKITRLSDEERKLYPDVFVGDLYRVEFADGVDEFALKPIRLKYYFDAKYLRGENYNNLTFAYATEDGGYRIIPGSMIGKDERGYYVEAFTYHLSVFGVVLRSAGFQKHGIRLLREAVNSSGPAVLLVPGEDPTFEGVVKDNNIWETIFPDRTIMTYEYALYEPRSLAYSEMYRSFIEKEGRRSFIDFESDFLSQEILKYSQYEFDILAHGTGGLIVLRMLQRHPEVNNVRKVVLLSTPVQGTNVVNPLYFSSIFYGKDPEVLEDIFGIEWTKLKMLTLHIRNLIDTLGEVVQEILPDSQLVKELGGFSRNDVEIVSICGDTPPYGVDVSGTELERFYPEFVKGRGDGFVSIQSCRVGKVEQLSGNFYDLYSREENVAYIRELLKYEVQVFSGFRSDDYEEYLPSKNPELSEESAQKVVEVKETEGTEFPVLPVNILFENFLERIRSLELSSYLSGALVGKEVYIATESGVFAWDKKVLDKKIEFFKKIEDYASFVGEGDIFIIDNIGIKKYAPFPLVGDISDALITRNAIIYARVVPGGVRYYLFRNGAEKLIATSPGTTVRMKSENGNYLLITDGEVVAIGSDFKEKGRVLSSLFGEKVKIVDASFKDDAFYILLNDGSIAFVSSSRSETKNYGLAVPKKVLNFQGRILVVYDGVILDLSAGKAQRFDRGIIDVFPGNESLFIVFDEKVRVSVEEWWLSKD”, which “soluble on expression in E. coli” value is on record?
A: not soluble

Q: Which “soluble on expression in E. coli” value does the source give for “MGSDKIHHHHHHLRSNRVTQHPPLQLSLPVHLPDDETFTSYYPAAGNDELIGALKSAASGDGVQAIYLWGPVKSGRTHLIHAACARANELERRSFYIPLGIHASISTALLEGLEQFDLICIDDVDAVAGHPLWEEAIFDLYNRVAEQKRGSLIVSASASPMEAGFVLPDLVSRMHWGLTYQLQPMMDDEKLAALQRRAAMRGLQLPEDVGRFLLNRMARDLRTLFDVLDRLDKASMVHQRKLTIPFVKEMLRL” here?
A: not soluble

Q: With “MSLAWDEGKPRIITLTMNPALDITTSVDVVRPTEKMRCGAPRYDPGGGGINVARIVHVLGGCSTALFPAGGSTGSLLMALLGDAGVPFRVIPIAASTRESFTVNESRTAKQYRFVLPGPSLTVAEQEQCLDELRGAAASAAFVVASGSLPPGVAADYYQRVADICRRSSTPLILDTSGGGLQHISSGVFLLKASVRELRECVGSELLTEPEQLAAAHELIDRGRAEVVVVSLGSQGALLATRHASHRFSSIPMTAVSGVGAGDAMVAAITVGLSRGWSLIKSVRLGNAAGAAMLLTPGTAACNRDDVERFFELAAEPTEVGQDQYVWHPIVNPEASPEGHHHHHH” as the sequence, how does the “soluble on expression in E. coli” value read?
A: soluble

Q: Which “soluble on expression in E. coli” value does the source give for “MGNTAMWMSCNPTIPILFGIQVKIFPLNQIFNHIHPARYAVTFENNVDSKLRRHWVAGATIRIIDRQTDEVIAKKTIYVFEKGLDGTGGARMPWKFAILCNKERLTSSEPLSDFVLSVLKPYILRPLYIASLRRDD” here?
A: not soluble

Q: Which “soluble on expression in E. coli” value does the source give for “MGSDKIHHHHHHMYLIGSDIGTQGTKSVIVNEKGEVLAEAFREYEVITPKPNWAEQWPDVWVKAVFETVKEVVEKSGVSKKEIAGIAISGLYGGSGIPVDRNMQPLRPCLIWMDRRAVKETEWVKQNVPKEKLFEITGNYVDSYFGFTKIMWIRNNEPEIWEKIYKFITPKDYVIYQMTGEVVIDYSSAGNLGGVFDIRKLTWSKEMCDVLGIPIEFLPERIVKSSDVVGRVTKEASELCGLLEGTPVVAGGIDAPVAQLSAGALEEGEHVAMVGTSTCWGTVHDGSKLAFGLVNYPYVVYDTERIYTFGGSATTGALARWFKEQFGESETIVGERTGISPYQLFDKEVANIPAGSEGIIVLPYFMGERSPIWDPTARGVFFGVTLYHKRAHLYRALMEGGAYALRHNMEEGLKAGLKLNDECWIVGGVSKSSVWVKIFADVTGFKMRQVASLVEAPYGDAFLAGLGTGVIDKPERIKEWVKYRDPVEPDPENKKIYDRYYEIYRELYERTKDLMARL” here?
A: not soluble

Q: For “TDDVEEDGEPSYKRVAEPEEDESAKPFGGEKAKAARPEPAVKGVRHTSPAPTAAPEKKTSWWDSFKAWLKRIFGGSETQAAPAAETSEKRSTANRSGSRANNRRQNPRRSKREGSKVEVREVAGKTAGQEARADKAETRNNGNRRRNERGDRAAERANEAEIQSRNVQPAATVADAAPSETEVQTGKRRRNGSRSERGQTAPETATVAETTVQTAENTPSEPHTAEDKGSKPKSERNRRERDSRDAKERRERNNQRDRRQNGKKRNIPSAAKIEQYLNIHDTADKVRSAAAHVFGETDANAPITVSIADPVAERDLPTASPAVSNGDAPVYDAAEKIRRATAAILPEGATPKAEAQEMPSETATFTAAAEQARETAQTGGLVLIETDPAALKAWAAQPEVQAGRGLRRSEQPKPSEVATVPAEEMIQVETRQG”, which “soluble on expression in E. coli” value is on record?
A: not soluble

Q: With “MGSDKIHHHHHHMQFVFDIDGTICFDRFQIDARIKAILKDAANYGHQISFASARSYRDCIDVLGQELSQKTVIGLNGGLAYKAGELILEKPMNHRAFDLALYYCHRYQLPYFVDDDFNYAHHLEQFIPFIHSVDPLKLAKEVGVEDLKHPIKMVVFFGNHLDKIAEVSHHLAKLEQLDITFHDDESCLYLNPKEVTKSSTIQELFDHDFVAFGNDRNDIAMFQAAVYSVQVGDFADLSPFADTQVLLRQDYHQAVADKIHETFEKFRA” as the sequence, how does the “soluble on expression in E. coli” value read?
A: not soluble

Q: Which “soluble on expression in E. coli” value does the source give for “MGSDKIHHHHHHMVKPDHGRKRQIELTEIGERIYQHAVELLQAEQNIFLEIENYQQLKTGTLKLGVPPLGSQLLTTALFDFHRQWPDIELAFMEVGSRGIEQALLNNELDVGVLLQPFDEQTFNSIELCNYPLMVLLRRDATWATRKKINLEELQHQSFLMFPENFSLNSIILDACKQYGFYPTIACRTSQWHLLADMVLQRMGIALLPQYYTDMLDPTLFAAVPLEKPNIQWHLVMAWKKNLPASPAVQAWLSIVRQHFQHIKP” here?
A: not soluble

Q: For “MGSDKIHHHHHHMASIQNLYETVVGVLGDQASKVISALGEITVECLPEHYISVMTALRDHEELHFELLVDLCGVDYSTYKNEVWQGKRFAVVSQLLSVKNNQRIRVRVWVSDDDFPVVESVVDIYNSADWYEREAFDMYGIMFNNHPDLRRILTDYGFVGHPFRKDFPISGYVEMRYDEEQKRVIYQPVTIEPREITPRIVREENYGGQ”, which “soluble on expression in E. coli” value is on record?
A: not soluble

Q: With “MTAIPASARIVLDTEIPARVPWSAIIRKGQTLRIVDSHGQQAVDTLFYAADDHGERYSGQDTLRAQGSAYVTTGTRIMSTEGRTMLRMVADSCGLHDTSAGACSCESNTVRFGHQTKYLHACRENFVLEAAKHGLSKRDIVPNLNFFMNVPLDPDGNFTVVDGVSKPGDYVEMVAEMDVLCLISNCPQVNNPCNGFFPTPIQVVIYEAGEDLEHHHHHH” as the sequence, how does the “soluble on expression in E. coli” value read?
A: soluble

Q: With “MGHHHHHHSHMEIPPTNYPASRAALVAQNYINYQQGTPHRVFEVQKVKQASMEDIPGRGHKYHLKFAVEEIIQKQVKVNCTAEVLYPSTGQETAPEVNFTFEGETGKNPDEEDNTFYQRLKSMKEPLEAQNIPDNFGNVSPEMTLVLHLAWVACGYIIWQNSTEDTWYKMVKIQTVKQVQRNDDFIELDYTILLHNIASQEIIPWQMQVLWHPQYGTKVKHNSRLPKEVQLE” as the sequence, how does the “soluble on expression in E. coli” value read?
A: not soluble

Q: Which “soluble on expression in E. coli” value does the source give for “MAHHHHHHMMSQSLNALRSGTACFPTTIAQQRRWITRLYTSYYPGVLYPNQLVQHKQRLPPGVSLSTALKARTQTRQEQSVAGREVPEENETRGVSWTDASSTDVMHTGNARRQEKVSVATGRSYVPLGEVAKLELQGDYCMEGGLFQEALERYGVVAKAYSIAYPENHSQRIGILLKLASAFRHVGRLDSSKVNIENALKMLDASSRPSLELICEALLELGLTREAKSMKNEGAEAYEEAVEVLNLFHNWGESHRMLRLLPRLGRRFNLNFEEKFVYFSPFDYDRTFAIADQCMERAEKVYRETGDSNGIIRVLQCRKEMIDKKFFNLRDFAGRIHTMRGHWMRRAQHLTNAPTPDELLRYTPTIHQVYRDFKYELTAPIGREKEVMPGVNRVVLDMGNPYRRRGRLSNKMLRDADHNFANYVRREEYNA” here?
A: not soluble

Q: With “MGSDKIHHHHHHMQASFMRMTDKRSPGKPLHPHGVLRPLVFKGRGALSNHDGRFDHLQHADIDDGWHNLDQDLAPLPTEVLIDNSRSIINWNNSPDVPFDRSINPYRGCEHGCIYCFARPTHTYLGLSAGLDFESRILVKPDAARLLRQELSKQHYRCAPIAMGTNTDPYQPLEKQHQLTRQILQVLAEFRHPVSIVTKAAMVERDIDILAPMASQGLVQVFISITTLSNQVSRTLEPRAAAPQRRLDTIRRLHQAGIPTGVMTAPVIPVLTDPELEHILAAASEAGASSAGYVLLRLPLEVAPLFEEWLQHHYPLKASHVMSIIRQSRDGKTNHTDFHARMRGNGLFAEMIRQRFRLACRKLGLNQRSMEMDTSLFRPPGKPEQLGLF” as the sequence, how does the “soluble on expression in E. coli” value read?
A: not soluble

Q: Which “soluble on expression in E. coli” value does the source give for “MSNRDQLFKAPPFENHSPLTWYQAASQLPNFIRDDAQAAAIEHLDRLWTELMMFKRKRNRFLGRSLRSPQVPKGLYFYGGVGRGKSFLMDAFFGCLPYRRKRRVHFHAFMAEIHQRLKTLKSESNPLKSVAAEIAKETRVLCFDEFHVSDIADAMILGRLLENLLNEGVVLVATSNYAPSELYPQGQNRSSFLPTIALIESSLTVLNVDGGEDYRLRTLRPAEIFFTPANEENEAKLAKLFKEMTGITDLNPGISTIHGREIPHKAESGRAIWFDFRALCFGPRSQSDYLYLAEHYEMVFISGLEQLSPQEKAEARRLTWLIDVLYDFRVKLCATGAVDVNHIYTEGDFAEEFTRTASRMVEMQSEVYLEQPHLTLSPKASGG” here?
A: not soluble

Q: For “MPTGKSESSDISEVVGNMEISKVEGLEACIGMSHEVSTTPAAELAAFRARKVALITGISGQDGSYLAELLLSKGYKVHGIIRRSSSFNTARIEHLYSNPITHHGDSSFSLHYGDMTDSSCLIKLISTIEPTEVYHLAAQSHVKVSFDLPEYTAEVDAVGTLRLLDAIHACRLTEKVRFYQASTSELYGKVQEIPQSEKTPFYPRSPYAVAKMYGYWIVVNYREAYNMFACNGILFNHESPRRGETFVTRKITRSVAKISLGQQESIELGNLSALRDWGHAREYVEAMWRILQHDSPDDFVIATGKQFSVREFCNLAFAEIGEVLQWEGEGVEEVGKNKDGVIRVKVSPKYYRPTEVETLLGNAEKAKKTLGWEAKVTVPELVKEMVASDIILMKSNPMA”, which “soluble on expression in E. coli” value is on record?
A: not soluble

Q: With “MGSDKIHHHHHHMIRREDYQYLRKLNDFRYFSIEQFDKIVGQMEFRKAKKDHILFFEGDKRDKLFLVTSGYFKVEQSDQSGTFMYTDFIRHGTIFPYGGLFTDDYYHFSVVAMTDVTYFYFPVDLFEDYSLENRLQMKHLYSKMSKLLELHELRVRNLITSSASSRVIQSLAILLVEMGKDSDTLPFQLTTTDIAQISGTTRETVSHVLRDLKKQELITIKGKYLTYLDKDYFLQYTK” as the sequence, how does the “soluble on expression in E. coli” value read?
A: not soluble

Q: For “GLLAIFIVFAISWGALVEITPLIFQKQTTESVENLRVYTPLEMEGRDIYIREGCNVCHSQMVRPFRSETERYGHYSVAGESVWEHPFLWGSKRTGPDLARVGGRYSDEWHRVHLLDPRELVPESNMPGFPWLAENVLDGKLTQKKLEVFRDQFGVPYEDETIANAAKEVEGKTEMDAIIAYLQSLGH”, which “soluble on expression in E. coli” value is on record?
A: not soluble
